According to patent publication US20180134765A1 (AVIDBIOTICS, published 2018):

How the values were obtained:
human NKG2D-Fc = biological target: T1, human NKG2D-Fc (human, UniProt P26718 78-216, limits assumed); experiment: ELISA: protein captured on FGFR3 detected with NKG2D-Fc
T1 construct: also called natural NKG2D-Fc; not shown: Fc part
T1 sequence (looked up): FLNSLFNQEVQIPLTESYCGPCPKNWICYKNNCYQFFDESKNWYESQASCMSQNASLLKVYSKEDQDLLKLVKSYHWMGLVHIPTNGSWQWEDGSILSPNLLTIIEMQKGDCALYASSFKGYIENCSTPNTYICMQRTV

NKG2D on NKL cells = biological target: T2, NKG2D on NKL cells (human, UniProt P26718 1-216); experiment: cell-based or functional assay
T2 sequence (looked up): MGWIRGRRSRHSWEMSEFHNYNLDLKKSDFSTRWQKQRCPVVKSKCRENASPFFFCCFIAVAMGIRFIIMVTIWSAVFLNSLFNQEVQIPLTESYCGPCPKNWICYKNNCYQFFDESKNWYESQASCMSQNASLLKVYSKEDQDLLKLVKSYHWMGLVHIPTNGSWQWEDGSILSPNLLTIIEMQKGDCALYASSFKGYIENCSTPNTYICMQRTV

His-avitag-natural NKG2D [1] = biological target: T3, His-avitag-natural NKG2D (human, biotin on the avitag sequence (BirA)); experiment: biolayer interferometry (Octet), biotinylated natural NKG2D ectodomain on the surface, 100 nM fusion protein
T3 construct: also called natural NKG2D ectodomain; wild type NKG2D
T3 chain: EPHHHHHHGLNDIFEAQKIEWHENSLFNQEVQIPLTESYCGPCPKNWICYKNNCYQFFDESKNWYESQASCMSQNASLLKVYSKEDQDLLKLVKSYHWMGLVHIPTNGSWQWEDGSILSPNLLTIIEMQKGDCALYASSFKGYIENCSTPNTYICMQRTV

His-avitag-natural NKG2D [2] = biological target: T3, His-avitag-natural NKG2D; experiment: biolayer interferometry (Octet), biotinylated natural NKG2D ectodomain on the surface, 100 nM fusion protein; run B
murine NKG2D-Fc = biological target: T4, murine NKG2D-Fc (mouse, UniProt O54709 94-232, limits assumed); experiment: competition ELISA: variant titrated against mouse NKG2D-Fc binding to plate-coated MICA (competitor), detected with anti-Fc-HRP
T4 construct: also called mouse NKG2D-Fc; not shown: Fc part; not described
T4 sequence (looked up): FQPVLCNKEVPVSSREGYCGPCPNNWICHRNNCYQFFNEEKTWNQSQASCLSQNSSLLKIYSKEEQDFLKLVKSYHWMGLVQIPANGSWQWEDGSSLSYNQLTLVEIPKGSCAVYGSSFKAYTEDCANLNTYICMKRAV

B1: ULBP1-α3-iFv.2 (designed binder)
chain: EPHCLCYDFIITPKSRPEPQWCEVQGLVDERPFLHYDCVNHKAKAFASLGKKVNVTKTWEEQTETLRDVVDFLKGQLLDIQVENLIPIEPLTLQARMSCEHEAHGHGRGSWQFLFNGQKFLLFDSNNRKWTALHPGAKKMTEKWEKNRDVTMFFQKISLGDCKMWLEEFLMYWEQMLDPTKPPMVQVTRSEASGGSGDRVTITCRASQDVSTAVAWYQQKPGKAPKLLIYSASFLYSGVPSRFSGSGSGTDFTLTISSLQPEDFATYYCQQSYTTPPTFGQGTKVEIKGGSSRSSSSGGGGSGGGGEVQLVESGGGLVQPGGSLRLSCAASGFTFTSTGISWVRQAPGKGLEWVGRIYPTNGSTNYADSVKGRFTISADTSKNTAYLQMNSLRAEDTAVYYCARTYGIYDLYVDYTEYVMDYWGQGTLVTVSSGGSSRSSSSGGGGSGGGGDIQMTQSPSSLSASGGSGQITVTCRASGFYPWNITLSWRQDGVSLSHDTQQWGDVLPDGQGTYQTWVATRISQGEEQRFTCYMEHSGQHSTHPVPSGKGSHHHHHH
notes: His-tagged, monomeric, insect cells; also called NKG2DL-α3-iFv.2 (ULBP1)
- binding result (human NKG2D-Fc): binds

B2: ULBP6-α3-iFv.2 (designed binder)
chain: EPHSLCYDITVIPKFRPGPRWCAVQGQVDEKTFLHYDCGNKTVTPVSPLGKKLNVTTAWKAQNPVLREVVDILTEQLLDIQLENYTPKEPLTLQARMSCEQKAEGHSSGSWQFSIDGQTFLLFDSEKRMWTTVHPGARKMKEKWENDKDVAMSFHYISMGDCIGWLEDFLMGMDSTLEPSAGAPPMVQVTRSEASGGSGDRVTITCRASQDVSTAVAWYQQKPGKAPKLLIYSASFLYSGVPSRFSGSGSGTDFTLTISSLQPEDFATYYCQQSYTTPPTFGQGTKVEIKGGSSRSSSSGGGGSGGGGEVQLVESGGGLVQPGGSLRLSCAASGFTFTSTGISWVRQAPGKGLEWVGRIYPTNGSTNYADSVKGRFTISADTSKNTAYLQMNSLRAEDTAVYYCARTYGIYDLYVDYTEYVMDYWGQGTLVTVSSGGSSRSSSSGGGGSGGGGDIQMTQSPSSLSASGGSGQITVTCRASGFYPWNITLSWRQDGVSLSHDTQQWGDVLPDGQGTYQTWVATRISQGEEQRFTCYMEHSGQHSTHPVPSGKGSHHHHHH
notes: His-tagged, monomeric, insect cells; also called NKG2DL-α3-iFv.2 (ULBP6)
- binding result (human NKG2D-Fc): binds

B3: ULBP3-α3-iFv.2 (designed binder)
chain: EPHSLWYNFTIIHLPRHGQQWCEVQSQVDQKNFLSYDCGSDKVLSMGHLEEQLYATDAWGKQLEMLREVGQRLRLELADTELEDFTPSGPLTLQVRMSCECEADGYIRGSWQFSFDGRKFLLFDSNNRKWTVVHAGARRMKEKWEKDSGLTTFFKMVSMRDCKSWLRDFLMHRKKRLEPTAPPMVQVTRSEASGGSGDRVTITCRASQDVSTAVAWYQQKPGKAPKLLIYSASFLYSGVPSRFSGSGSGTDFTLTISSLQPEDFATYYCQQSYTTPPTFGQGTKVEIKGGSSRSSSSGGGGSGGGGEVQLVESGGGLVQPGGSLRLSCAASGFTFTSTGISWVRQAPGKGLEWVGRIYPTNGSTNYADSVKGRFTISADTSKNTAYLQMNSLRAEDTAVYYCARTYGIYDLYVDYTEYVMDYWGQGTLVTVSSGGSSRSSSSGGGGSGGGGDIQMTQSPSSLSASGGSGQITVTCRASGFYPWNITLSWRQDGVSLSHDTQQWGDVLPDGQGTYQTWVATRISQGEEQRFTCYMEHSGQHSTHPVPSGKGSHHHHHH
notes: His-tagged, monomeric, insect cells; also called NKG2DL-α3-iFv.2 (ULBP3)
- binding result (human NKG2D-Fc): binds

B4: α1-α2 variant 16 (ligand)
chain: EPHSLRYNLTVLSWDGSVQSGFLTEVHLDGQPFLRCDRQKCRAKPQGQWAEDVLGNKTWDRETRDLTGWGKDLRMTLAHIKDQKEGLHSLQEIRVCEIHEDNSTRSSQHFYYDGELFLSQNLETLEWTMPQSSRAQTLAMNVRNFLKEDAMETDTHYHAMRADCLQELRRYLKSGVVLRRTVPPMVQVTRSEASGGSGDRVTITCRASQDVSTAVAWYQQKPGKAPKLLIYSASFLYSGVPSRFSGSGSGTDFTLTISSLQPEDFATYYCQQSYTTPPTFGQGTKVEIKGGSSRSSSSGGGGSGGGGEVQLVESGGGLVQPGGSLRLSCAASGFTFTSTGISWVRQAPGKGLEWVGRIYPTNGSTNYADSVKGRFTISADTSKNTAYLQMNSLRAEDTAVYYCARTYGIYDLYVDYTEYVMDYWGQGTLVTVSSGGSSRSSSSGGGGSGGGGDIQMTQSPSSLSASGGSGQITVTCRASGFYPWNITLSWRQDGVSLSHDTQQWGDVLPDGQGTYQTWVATRISQGEEQRFTCYMEHSGQHSTHPVPSGKGSHHHHHH
- NK cell-mediated lysis of FGFR3-expressing P815 target cells (calcein release, NKL cells) (NKG2D on NKL cells): ~15 fold more killing than WT at 0.78 nM

B5: MICv49-Fv (designed binder)
chain: EPHSLRYNLTVLSWDGSVQTGFLTEVHLDGQPFLRCDRQKCRAKPQGQWAEDVLGNKTWDRETRDLTQWGKDLRMTLAHIKDQKEGLHSLQEIRVCEIHEDNSTRSSQHFYYDGELFLSQNLETKEWTMPQSSRAQTLAMNVRNFLKEDAMFTDTHYRAMTADCLTELRRYLKSGVVLRRTVPPMVQVTRSEASGGSGDRVTITCRASQDVSTAVAWYQQKPGKAPKLLIYSASFLYSGVPSRFSGSGSGTDFTLTISSLQPEDFATYYCQQSYTTPPTFGQGTKVEIKGGSSRSSSSGGGGSGGGGEVQLVESGGGLVQPGGSLRLSCAASGFTFTSTGISWVRQAPGKGLEWVGRIYPTNGSTNYADSVKGRFTISADTSKNTAYLQMNSLRAEDTAVYYCARTYGIYDLYVDYTEYVMDYWGQGTLVTVSSGGSSRSSSSGGGGSGGGGDIQMTQSPSSLSASGGSGQITVTCRASGFYPWNITLSWRQDGVSLSHDTQQWGDVLPDGQGTYQTWVATRISQGEEQRFTCYMEHSGQHSTHPVPSGKGSHHHHHH
notes: His-tagged α1-α2-α3-Fv fusion; also called DSM49 α1-α2-α3-Fv fusion
- Kd (His-avitag-natural NKG2D [1]): 0.746 nM
- koff (His-avitag-natural NKG2D [1]): 2.76e-05 s⁻¹
- kon (His-avitag-natural NKG2D [1]): 37000 M⁻¹ s⁻¹

B6: MICwed-Fv (designed binder)
chain: EPHSLRYNLTVLSWDGSVQSGFLTEVHLDGQPFLRCDRQKCRAKPQGQWAEDVLGNKTWDRETRDLTGWGKDLRMTLAHIKDQKEGLHSLQEIRVCEIHEDNSTRSSQHFYYDGELFLSQNLETKEWTMPQSSRAQTLAMNVRNFLKEDAMETDTHYHAMHADCLQELRRYLKSGVVLRRTVPPMVQVTRSEASGGSGDRVTITCRASQDVSTAVAWYQQKPGKAPKLLIYSASFLYSGVPSRFSGSGSGTDFTLTISSLQPEDFATYYCQQSYTTPPTFGQGTKVEIKGGSSRSSSSGGGGSGGGGEVQLVESGGGLVQPGGSLRLSCAASGFTFTSTGISWVRQAPGKGLEWVGRIYPTNGSTNYADSVKGRFTISADTSKNTAYLQMNSLRAEDTAVYYCARTYGIYDLYVDYTEYVMDYWGQGTLVTVSSGGSSRSSSSGGGGSGGGGDIQMTQSPSSLSASGGSGQITVTCRASGFYPWNITLSWRQDGVSLSHDTQQWGDVLPDGQGTYQTWVATRISQGEEQRFTCYMEHSGQHSTHPVPSGKGSHHHHHH
notes: His-tagged α1-α2-α3-Fv fusion; also called MICwed-Fv run A; MICwed-Fv run B
- Kd (His-avitag-natural NKG2D [2]): 15.5 nM
- koff (His-avitag-natural NKG2D [2]): 0.00312 s⁻¹
- kon (His-avitag-natural NKG2D [2]): 201000 M⁻¹ s⁻¹

B7: α1-α2 variant 17 (ligand)
chain: EPHSLRYNLTVLSWDGSVQSGFLTEVHLDGQPFLRCDRQKCRAKPQGQWAEDVLGNKTWDRETRDLTLWGKDLRMTLAHIKDQKEGLHSLQEIRVCEIHEDNSTRSSQHFYYDGELFLSQNLETLEWTMPQSSRAQTLAMNVRNFLKEDAMETDTHYHAMRADCLQELRRYLKSGVVLRRTVPPMVQVTRSEASGGSGDRVTITCRASQDVSTAVAWYQQKPGKAPKLLIYSASFLYSGVPSRFSGSGSGTDFTLTISSLQPEDFATYYCQQSYTTPPTFGQGTKVEIKGGSSRSSSSGGGGSGGGGEVQLVESGGGLVQPGGSLRLSCAASGFTFTSTGISWVRQAPGKGLEWVGRIYPTNGSTNYADSVKGRFTISADTSKNTAYLQMNSLRAEDTAVYYCARTYGIYDLYVDYTEYVMDYWGQGTLVTVSSGGSSRSSSSGGGGSGGGGDIQMTQSPSSLSASGGSGQITVTCRASGFYPWNITLSWRQDGVSLSHDTQQWGDVLPDGQGTYQTWVATRISQGEEQRFTCYMEHSGQHSTHPVPSGKGSHHHHHH
- NK cell-mediated lysis of FGFR3-expressing P815 target cells (calcein release, NKL cells) (NKG2D on NKL cells): ~15 fold more killing than WT at 0.78 nM
- IC50 (read off the curve) (murine NKG2D-Fc): ~1 nM

B8: ULBP4-α3-iFv.2 (designed binder)
chain: EPHSLCFNFTIKSLSRPGQPWCEAQVFLNKNLFLQYNSDNNMVKPLGLLGKKVYATSTWGELTQTLGEVGRDLRMLLCDIKPQIKTSDPSTLQVEMFCQREAERCTGASWQFATNGEKSLLFDAMNMTWTVINHEASKIKETWKKDRGLEKYFRKLSKGDCDHWLREFLGHWEAMPEPTVSPPMVQVTRSEASGGSGDRVTITCRASQDVSTAVAWYQQKPGKAPKLLIYSASFLYSGVPSRFSGSGSGTDFTLTISSLQPEDFATYYCQQSYTTPPTFGQGTKVEIKGGSSRSSSSGGGGSGGGGEVQLVESGGGLVQPGGSLRLSCAASGFTFTSTGISWVRQAPGKGLEWVGRIYPTNGSTNYADSVKGRFTISADTSKNTAYLQMNSLRAEDTAVYYCARTYGIYDLYVDYTEYVMDYWGQGTLVTVSSGGSSRSSSSGGGGSGGGGDIQMTQSPSSLSASGGSGQITVTCRASGFYPWNITLSWRQDGVSLSHDTQQWGDVLPDGQGTYQTWVATRISQGEEQRFTCYMEHSGQHSTHPVPSGKGSHHHHHH
notes: His-tagged, monomeric, insect cells; also called NKG2DL-α3-iFv.2 (ULBP4)
- binding result (human NKG2D-Fc): binds
